Data reported in patent publication US20210395344A1 (TWIST BIOSCIENCE, published 2021).
Residue numbers refer to the chain shown, from its start.

B1: SARS-CoV-2 variant 2-15 (antibody, V domains shown)
VH: EVQLLESGGGLVQPGGSLRLSCAASGFTFSDFAMAWVRQAPGKGLEWVSAISGSGDITYYADSVKGRFTISRDNSKNTLYLQMNSLRAEDTAVYYCAREADGLHSPWHFDLWGQGTLVTVSS
VL: DIQMTQSPSSLSASVGDRVTITCRASQSIDNYLNWYQQKPGKAPKLLIYGVSALQSGVPSRFSGSGSGTDFTLTISSLQPEDFATYYCQQSHSAPLTFGQGTKVEIK
B2: SARS-CoV-2 variant 1-38 (antibody, V domains shown)
VH: EVQLLESGGGLVQPGGSLRLSCAASGITFSSYAMSWVRQAPGKGLEWVSGISGSGGSTYYADSVKGRFTISRDNSKNTLYLQMNSLRAEDTAVYYCAKHGSGTIFGVVIAKYYFDYWGQGTLVTVSS
VL: QSALTQPASVSGSPGQSITISCTGTSSDIGSYNLVSWYQQHPGKAPKLMIYEGTKRPSGVSNRFSGSKSGNTASLTISGLQAEDEADYYCCSYAGSRTYVFGGGTKLTVL
B3: SARS-CoV-2 variant 1-17 (antibody, V domains shown)
VH: EVQLLESGGGLVQPGGSLRLSCAASGFTFSSYAMYWVRQAPGKGLEWVSAISGSAGSTYYADSVKGRFTISRDNSKNTLYLQMNSLRAEDTAVYYCARDTNDFWSGYSIFDPWGQGTLVTVSS
VL: B2 VL
B4: SARS-CoV-2 variant 1-37 (antibody, V domains shown)
VH: EVQLLESGGGLVQPGGSLRLSCAASGFTFTSYAMNWVRQAPGKGLEWVTAISGSGGSTFYADSVKGRFTISRDNSKNTLYLQMNSLRAEDTAVYYCTRPPYGDYGDYWGQGTLVTVSS
VL: B2 VL
B5: SARS-CoV-2 variant 1-42 (antibody, V domains shown)
VH: B2 VH with I27V, G50A, S52T
VL: B2 VL with I29V, S31R, T54G, G95S, R97S, Y99L
B6: SARS-CoV-2 variant 1-22 (antibody, V domains shown)
VH: EVQLLESGGGLVQPGGSLRLSCAASGFTFSSYAMNWVRQAPGKGLEWVSIISGSGGSTYYADSVKGRFTISRDNSKNTLYLQMNSLRAEDTAVYYCAREGYRDYLWYFDLWGQGTLVTVSS
VL: QSALTQPASVSGSPGQSITISCTGTSTDVGSYNLVSWYQQHPGKAPKLMIYEGSQRPSGVSNRFSGSKSGNTASLTISGLQAEDEADYYCCSYAGSSTVFGGGTKLTVL
B7: SARS-CoV-2 variant 1-21 (antibody, V domains shown)
VH: B6 VH with A33T, N35S
VL: QSALTQPASVSGSPGQSITISCTGTSSDVGSNNLVSWYQQHPGKAPKLMIYEGNKRPSGVSNRFSGSKSGNTASLTISGLQAEDEADYYCCSYAGSVVFGGGTKLTVL
B8: SARS-CoV-2 variant 1-23 (antibody, V domains shown)
VH: B6 VH with M34I, N35S
VL: B6 VL with T27N, S54N, Q55K, S97Y
B9: SARS-CoV-2 variant 1-24 (antibody, V domains shown)
VH: B6 VH
VL: B6 VL with T27S, S31Y, S54N, Q55K, S96G, T98V
B10: SARS-CoV-2 variant 1-10 (antibody, V domains shown)
VH: EVQLLESGGGLVQPGGSLRLSCAASGFTFSSYDMSWVRQAPGKGLEWVSVISGSGGSTYYADSVKGRFTISRDNSKNTLYLQMNSLRAEDTAVYYCAKGPLVGWYFDLWGQGTLVTVSS
VL: QSALTQPASVSGSPGQSITISCTGTSSNVGSYNLVSWYQQHPGKAPKLMIYEGTKRPSGVSNRFSGSKSGNTASLTISGLQAEDEADYYCCSYAGSSSFVVFGGGTKLTVL
B11: SARS-CoV-2 variant 1-26 (antibody, V domains shown)
VH: EVQLLESGGGLVQPGGSLRLSCAASGFTFSSYAISWVRQAPGKGLEWVSAISGSGYSTYYADSVKGRFTISRDNSKNTLYLQMNSLRAEDTAVYYCARGAPDSSGYYFQGEVYFDYWGQGTLVTVSS
VL: B10 VL with N28D, S31G, Y93F, A94V, G95R, S98A, F99H
B12: SARS-CoV-2 variant 1-47 (antibody, V domains shown)
VH: EVQLLESGGGLVQPGGSLRLSCAASGFTFSSQAMSWVRQAPGKGLEWVSAISGSGGGTYYADSVKGRFTISRDNSKNTLYLQMNSLRAEDTAVYYCAKDRRFGEFDPWGQGTLVTVSS
VL: B10 VL with N28G, T54I
B13: SARS-CoV-2 variant 1-8 (antibody, V domains shown)
VH: B10 VH
VL: B2 VL with S27N, I29V, T54S, T98Y, Y99V
B14: SARS-CoV-2 variant 1-7 (antibody, V domains shown)
VH: B10 VH
VL: B10 VL with N28D, V29F, T54N, S98T
B15: SARS-CoV-2 variant 1-9 (antibody, V domains shown)
VH: B10 VH
VL: B10 VL with N28D, S31D, T54S, K55N

Tests used:
Experiment in all cases: phage ELISA
[1] = biological target: COVID S1 RBM Fc fusion (Antigen 2) (SARS-CoV-2, UniProt P0DTC2 437-508)
[2] = biological target: COVID S1 RBD Fc fusion (Antigen 1) (SARS-CoV-2, UniProt P0DTC2 319-541)
[3] = biological target: T1, COVID S1 RBM Fc fusion (Antigen 2) (SARS-CoV-2, UniProt P0DTC2 437-508)
T1 construct: domain: RBM

[4] = biological target: T2, SARS-CoV-2 S1 (subunit 1) protein (SARS-CoV-2, UniProt P0DTC2 16-685)
T2 construct: also called biotinylated SARS-CoV-2 S1

[5] = biological target: T3, COVID S1 RBD Fc fusion (Antigen 1) (SARS-CoV-2, UniProt P0DTC2 319-541)
T3 construct: domain: RBD

S1-Fc = S1-Fc (SARS-CoV-2, UniProt P0DTC2 16-685)

Binder | specificity ELISA, fold over background [1] [fold over background] | specificity ELISA, percent binding relative to Acro S1 [1] [%] | specificity ELISA, fold over background [2] [fold over background] | specificity ELISA, percent binding relative to Acro S1 [2] [%] | specificity ELISA, fold over background [3] [fold over background] | specificity ELISA, percent binding relative to Acro S1 [3] [%] | screening ELISA (Avg), fold over background [4] [fold over background] | specificity ELISA, fold over background [5] [fold over background] | specificity ELISA, percent binding relative to Acro S1 [5] [%] | specificity ELISA, fold over background (S1-Fc) [fold over background] | specificity ELISA, percent binding relative to Acro S1 (S1-Fc) [%]
B1 | 0.9 | 3 | 28.1 | 90.6 | – | – | – | – | – | – | –
B2 | – | – | – | – | 1.2 | 101 | 20.2 | 1.5 | 128 | 0.9 | 82.8
B3 | – | – | – | – | 1.3 | 5.2 | 27.4 | 20.1 | 79.8 | – | –
B4 | – | – | – | – | 1.4 | 12.3 | 27 | 2 | 17.7 | 5.4 | 46.7
B5 | – | – | – | – | 1 | 4.2 | 34.5 | 20.8 | 91.4 | – | –
B6 | – | – | – | – | 1.5 | 4.7 | 40.6 | 26.5 | 81.2 | – | –
B7 | – | – | – | – | 1.4 | 7 | 47.6 | 14.8 | 75.7 | – | –
B8 | – | – | – | – | 1.6 | 32 | 23.1 | 3.6 | 70.9 | 1.6 | 31.1
B9 | – | – | – | – | 1.3 | 10.3 | 32.9 | 11 | 85.4 | – | –
B10 | – | – | – | – | 1.1 | 6.2 | 16.9 | 17.4 | 100 | – | –
B11 | – | – | – | – | 1 | 74.7 | 19.5 | 1.1 | 76.8 | 1.3 | 98
B12 | – | – | – | – | 0.9 | 11.1 | 22.6 | 5.5 | 68.9 | – | –
B13 | – | – | – | – | 1.2 | 10.3 | 19.3 | 11.2 | 92.9 | – | –
B14 | – | – | – | – | 1.6 | 23 | 22.5 | 3.3 | 48.7 | – | –
B15 | – | – | – | – | 1 | 9.3 | 18.5 | 9.8 | 91.1 | – | –
